Experiments:
[1] = target: T1, ABCG2 (Homo sapiens, UniProt Q9UNQ0); experiment: Flow cytometry binding to 293T cells overexpressing human ABCG2 (293T_ABCG2_OX); set-up: key to Binding by FACS: binding=“+”; non-significant binding=“−”; settings: for Binding by FACS / Kd: 293T_ABCG2_OX cells; for Kd: read-out: Affinity for human ABCG2; for binding to 293T cells overexpressing human ABCG2: in words, FIGS. 7-11, 21
T1 construct: expressed in transfected cells
T1 sequence (Q9UNQ0 1-655): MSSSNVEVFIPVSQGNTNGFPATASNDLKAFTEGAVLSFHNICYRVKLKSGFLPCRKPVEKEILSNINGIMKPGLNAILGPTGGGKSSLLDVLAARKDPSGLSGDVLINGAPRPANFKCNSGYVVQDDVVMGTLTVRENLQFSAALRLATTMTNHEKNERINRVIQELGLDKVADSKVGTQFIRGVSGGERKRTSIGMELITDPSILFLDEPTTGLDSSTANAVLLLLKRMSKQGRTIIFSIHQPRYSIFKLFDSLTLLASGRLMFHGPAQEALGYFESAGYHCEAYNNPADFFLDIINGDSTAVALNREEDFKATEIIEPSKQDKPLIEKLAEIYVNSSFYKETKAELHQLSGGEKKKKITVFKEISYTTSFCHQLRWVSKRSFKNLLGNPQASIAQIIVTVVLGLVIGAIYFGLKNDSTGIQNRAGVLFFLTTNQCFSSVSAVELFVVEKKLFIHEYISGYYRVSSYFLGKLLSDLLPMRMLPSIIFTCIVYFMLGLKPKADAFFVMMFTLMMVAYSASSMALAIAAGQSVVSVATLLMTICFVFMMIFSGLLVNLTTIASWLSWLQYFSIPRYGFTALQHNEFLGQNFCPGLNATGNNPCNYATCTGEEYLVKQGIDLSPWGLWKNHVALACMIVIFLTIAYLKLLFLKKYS
Experimental: (§1) Cell Binding Assays. Antibody binding to cells was evaluated by flow cytometry. 293T cells stably transfected to express human or cynomolgus ABCG2 (293T_ABCG2_OX) were washed once in flow cytometry buffer (PBS+2% FBS+0.02% sodium azide), resuspended at 2×10^6 cells/mL in flow cytometry buffer, and dispensed into 96-well microtiter plates at 0.1 mL/well. Recombinant antibodies were added to cells at 5 ug/mL for initial binding confirmation, or serially diluted from 100 ug/mL in flow cytometry buffer. After incubating cells on ice for 30 min, cells were washed twice with flow cytometry buffer. Bound antibody was detected with PE-labeled F(ab′)2 fragment goat anti-human IgG (Jackson ImmunoResearch) and evaluated on an Attune NxT flow cytometer. EC50 is calculated to be the concentration of antibody that gives half maximal response.

[2] = tested on: cynomolgus ABCG2; experiment: Flow cytometry binding to 293T cells overexpressing cynomolgus ABCG2; set-up: key to Cynomolgus ABCG2 binding: binding=“+”; non-significant binding=“−”; settings: for binding to 293T cells overexpressing cynomolgus ABCG2: in words, FIGS. 7-11, 21
Chain of cynomolgus ABCG2 (as listed by the source): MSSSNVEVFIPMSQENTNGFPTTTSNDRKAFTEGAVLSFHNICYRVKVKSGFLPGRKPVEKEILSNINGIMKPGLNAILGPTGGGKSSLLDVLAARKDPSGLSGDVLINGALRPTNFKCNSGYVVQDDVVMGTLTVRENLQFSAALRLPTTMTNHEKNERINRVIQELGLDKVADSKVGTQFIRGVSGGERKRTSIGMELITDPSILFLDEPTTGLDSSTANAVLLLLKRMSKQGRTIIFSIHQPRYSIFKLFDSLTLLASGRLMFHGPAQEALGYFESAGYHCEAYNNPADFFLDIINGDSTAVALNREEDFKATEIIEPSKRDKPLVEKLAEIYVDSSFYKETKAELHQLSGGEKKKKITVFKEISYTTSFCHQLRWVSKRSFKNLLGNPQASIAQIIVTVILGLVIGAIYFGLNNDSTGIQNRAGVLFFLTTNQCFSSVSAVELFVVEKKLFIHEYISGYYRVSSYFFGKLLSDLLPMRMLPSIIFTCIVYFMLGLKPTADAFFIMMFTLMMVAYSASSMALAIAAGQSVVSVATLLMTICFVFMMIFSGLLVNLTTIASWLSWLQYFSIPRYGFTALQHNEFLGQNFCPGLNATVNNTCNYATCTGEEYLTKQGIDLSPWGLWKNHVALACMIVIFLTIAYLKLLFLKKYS
Experimental: as §1

[3] = target: T1, ABCG2; type: cell-based
Experimental: 293T_ABCG2_OX cells were washed several times and aliquoted into 96-well plates as 50 μl aliquots/well at a cell density of 2×10e6 cells per ml in phenol red-free DMEM. Cells were mixed with 50 μl antibodies or the small molecule inhibitors of ABCG2:-fumitremorgin C (FTC), or its tetracyclic analogue K0143, with a final concentration of 1 μM. Cells were then incubated in the presence of 2.5 μM Mitoxantrone 1 h at 37° C. The cells were subsequently washed twice and finally resuspended in […] PBS. Mitoxantrone fluorescence was measured using excitation at 635 nm and emission at 647 nm. Protocols was measuring efflux blockade are found in Szabo E, et al., PLoS One. 2018 Jan. 17; 13(1):e0190629; Deeken J F, et al., Mol Pharmacol. 2009 November; 76(5):946-56).

[4] = tested on: 293T_ABCG2_OX cells; type: cell-based, human; settings: for Killing: cell killing by topotecan on 293T_ABCG2_OX cells, viability relative to IgG control
Experimental: Cytotoxicity Assays. The effect of antibodies on topotecan cytotoxicity was evaluated on 293T_ABCG2_OX cells, 293T cells stably transfected to express ABCG2. Cells were plated in 0.05 mL of Assay Media (DMEM+10% FBS) at 5000 cells/well in white, flat bottom 96-well tissue culture plates. Topotecan was prepared at 2× final assay concentration by serial dilution from 200 uM in assay media containing test antibodies or control antibodies at 100 ug/mL (2× final concentration), or Fumitremorgin C, a small molecule ABCG2 inhibitor at 20 uM (2× final concentration). An equivalent volume (0.05 mL) of the topotecan/antibody mixture was added to the 293T_ABCG2_OX cells in 96-well plates. The plates were then incubated at 37° C., in 5% CO2. After 72-96 hr plates were equilibrated to room temperature and cell viability assessed using Promega® CellTiter-Glo® Luminescent Cell Viability Assay according to the manufacturer's recommended protocol. Luminescence was measured on a Molecular Devices® FlexStation® 3 Multi-Mode Microplate Reader and data analyzed using GraphPad Prism 8.0 software. Half maximal inhibitory concentration (1050) is the concentration of drug (topotecan or other chemotherapy cytotoxic agent) where the response (cell growth) is reduced by 50%.

Row | Molecule | Binding by FACS [1] | Cynomolgus ABCG2 binding [2] | Block Efflux [3] | Killing [4] | effect on topotecan cytotoxicity on 293T_ABCG2_OX cells [4] | Kd [1] | efflux inhibition activity [3] | binding to 293T cells overexpressing human ABCG2 [1] | binding to 293T cells overexpressing human ABCG2 ([1]; listed as G.643) | binding to 293T cells overexpressing cynomolgus ABCG2 [2] | binding to 293T cells overexpressing cynomolgus ABCG2 ([2]; listed as G.643)
1 | G2.173 mouse: anti-ABCG2 antibody raised in mouse, listed in Table 2 (antibody, V domains shown) VH: QVQLQQSGADLVRPGASVKLSCTASGFNIKDDYVHWVKQRPEQGLEWIGRIDPANGNTRYAPKFRGKATMTADTSSNTAYLQLSSLTSADTAVYYCSPPLWVGGFAYWGQGTLVTVSS VL: DVVMTQTPLSLPVSLGDQASISCRSSQSLVHSDVNTYLHWYLQRPGQSPKLLIYKVSNRFSGVPDRFSGSGSGTDFTLKISRVESEDLGIYFCSQTTHVPYTFGGGTKLEIK | + | − | − | − (≥75% of IgG control) |  |  |  |  |  |  | 
2 | G2.173 Humanized 2: humanized version of anti-ABCG2 antibody G2.173 (antibody, V domains shown) VH: EVQLVQSGAEVKKPGASVKVSCKASGFNIKDDYVHWVRQAPGQGLEWIGRIDPAQGNTRYAPKFRGRATMTADTSISTAYMELSRLRSDDTAVYYCSPPLWVGGFAYWGQGTLVTVSS VL: DVVMTQSPLSLPVTLGQPASISCRSSQSLVHSDVNTYLHWYQQRPGQSPRLLIYKVSNRFSGVPDRFSGSGSGTDFTLKISRVEAEDVGVYFCSQTTHVPYTFGGGTKLEIK | + | − | − | − (≥75% of IgG control) |  |  |  |  |  |  | 
3 | G2.173 Humanized 1: humanized version of anti-ABCG2 antibody G2.173 (antibody, V domains shown) VH: EVQLVQSGAEVKKPGASVKVSCKASGFNIKDDYVHWVRQAPGQGLEWIGRIDPANGNTRYAPKFRGRATMTADTSISTAYMELSRLRSDDTAVYYCSPPLWVGGFAYWGQGTLVTVSS VL: DVVMTQSPLSLPVTLGQPASISCRSSQSLVHSDVNTYLHWYQQRPGQSPRLLIYKVSNRFSGVPDRFSGSGSGTDFTLKISRVEAEDVGVYFCSQTTHVPYTFGGGTKLEIK | + | − | − | − (≥75% of IgG control) |  |  |  |  |  |  | 
4 | G2.173 Humanized 3: humanized version of anti-ABCG2 antibody G2.173 (antibody, V domains shown) VH: EVQLVQSGAEVKKPGASVKVSCKASGFNIKDDYVHWVRQAPGQGLEWIGRIDPASGNTRYAPKFRGRATMTADTSISTAYMELSRLRSDDTAVYYCSPPLWVGGFAYWGQGTLVTVSS VL: DVVMTQSPLSLPVTLGQPASISCRSSQSLVHSDVNTYLHWYQQRPGQSPRLLIYKVSNRFSGVPDRFSGSGSGTDFTLKISRVEAEDVGVYFCSQTTHVPYTFGGGTKLEIK | + | − | − | − (≥75% of IgG control) |  |  |  |  |  |  | 
5 | G2.420 rat: anti-ABCG2 antibody raised in rat (antibody, V domains shown) VH: SVQLMESGPGLVQPSQTLSLTCTVSGFSLNSYNVNWVRQPPGKGLEWIAAISSGGSTYYNSVLKSRLSITRDTSKSQVFLKMNSLQTEDTAMYFCARSGYYSSYMNWGQGVMVTVSS VL: DVVMTQTPPTLSATIGQSVSISCRSSQSLLHSTGNTYLNWLLQRPGQPPQLLIYLVSRLEYGVPNRFSGSGSGTDFTLKISGVEAEDLGVYYCAQSTHALNTFGAGTKLELK | + | + | + |  | significantly increased the cytotoxic activity of topotecan |  |  |  |  |  | 
6 | G2.318 rat: anti-ABCG2 antibody raised in rat (antibody, V domains shown) VH: EVKLLESGPGLVKPSQSLSLTCSVTGYTITSGYDWSWIRKFPGNKMEWMGYISYSGWTNYNPSLRSRISISRDTSKNQFFLQLNSVTTEDTATYYCARVRGYNPFAYWGQGTLVTVSS VL: DIVMTQSPSLLSASVGDRVTLSCKAGQNINNYLAWYQQKLGEAPKLLIYNANSLQTGIPSRFSGSGSGTDFTLTISSLQPEDVATYFCQQYNSWTTFGSGTKLEIK | + | + | + | + (viability ≥30% and <50% of IgG control) |  | 41 nM | strong efflux inhibition activity |  |  |  | 
7 | G2.320 rat: anti-ABCG2 antibody raised in rat (antibody, V domains shown) VH: EVQLEESGPGLVKPSQSLSLTCSVTGYTITSGYDWTWIRKFPGNKMEWMGYISYSGFTNYNPSLRSRISITRDTSKNQFFLQLNSVTTEDTATYYCTRTRGYNPFAYWGQGASVSSAS VL: DIVMTQSPSLLSASVGDRVTLSCKAGRNINNYLAWYQQKLGKAPKLLIYNTNSLQTGIPSRFSGSGSGTDFTLTISSLQPEDVATYFCQQYNSWTTFGSGTKLEIK | + | + | + | + (viability ≥30% and <50% of IgG control) |  | 58 nM |  |  |  |  | 
8 | G2.643: Anti-G2 antibody raised in rats (antibody, V domains shown) VH: VNLVESGPELVKPGTSVKISCKASGYRFTSYYVHWVKQRPGQGLEWIGWIFPGSDNTKYNEKFKGKATLTADTSSSTAYMQLSSLTSEDSAVYFCASIYYGYDGTLYFDYWGQGTSVTVSS VL: DIVMTQSHTFMSTSVGDRVSVTCKASQNVGNNVAWYQQKPGQSPNALIYSASYRYSGVPDRFTGSGSGTDFTLTISNVQSEDLAEYFCQQYDRYPLTFGGGTKLEIK |  |  |  |  | significantly increased the cytotoxic activity of topotecan |  |  | strong binding | did not show significant binding | strong binding | did not show significant binding

— US20230212305A1, “ANTI-ABCG2 ANTIBODIES AND USES THEREOF” (Kenjockety Biotechnology, Inc., priority 2020, published 2023)
